Substrate in this data set: O=[N+]([O-])c1ccc(O[C@H]2O[C@H](CO)[C@@H](O)[C@H](O)[C@@H]2O)cc1
Nature of the data set: purified protein. The format is biochemical, Enterococcus faecalis. As to conditions: apparent, MES 100 mM, pH 6.0, CaCl2 4 mM, 37 °C, 10 min.

B1: EfMan-I (Enterococcus faecalis V583) (protein)
chain: MNIQAIDTRHGTANQHSFSNGNCLPYTGVPFGMNFYAPQTTDQKGSWWFHPEDRTFQGYRVTHQPSPWMGDFSHLLMTPVSGSLSELSLFHAQSSYRPEESLFSPVEINLTQLRYQITSQLIPSMYGGILTIDYQQKDNHLLLTLPGRYQVKQLDDHQVAVKVINYSGCEDPDFSFYFVLHFEQPLTKWFAPSSGEDGKILLSFGNIAQQVVHFSSSFISEKQAQLNLAREISLRSTEMLQQGIADWHNYFDRLKVTHENPEHTKTFYHTLYRTFLFPQTFYELDENQQPIHYDTFSQTVRPGVLYTNNGFWDTYKTVYPLFSLIAQEKYEEMLEGFLNSYNETGFLPKWLSPDERGLMPGTLIDAVIADAAVKKIRPDLMPQFLEAMKKGATQQSERENYGRQGTLDYLKYGYVPSTYHESVNHTLDYAYSDFCISQVAKTLNDSETATFYRQQALNYQQLFNPETGFMQAKDTEGNFRPDFLDIRWGKDYAEGSAWQSSFAVYQDFAGLIKLYGSELAFEKKLIQLCNQAPNFNVEGYGFEIHEMSEMAAIDFGQLAISNQPSFHYPFLFSYIGKPEMAQPLLKQLMQTFDASPTGYPGDEDNGSMSAWYIFNSLGFYPVTPGTGEYVIGMPLVQTAEVKLSNGKQLTIQTSPNKVQQQFIHEIQLNQEKHTAPYFTHQELLNGGTLDYQLGIVPNPQNTAERPFSLSTEK
On to B1, for which the Km is 11 ± 1.7 mM, the kcat amounted to 0.49 ± 0.03 s⁻¹ and the catalytic efficiency (kcat/Km) was determined as 47 M⁻¹ s⁻¹.

(Values after paper PMC7012691.)
